Test results taken from US20120184713.

Experiments:
[1] = molecular target: T1, BSP:FLAG (FLAG epitope-tagged mouse bone sialoprotein, affinity purified), Q61711
T1 chain: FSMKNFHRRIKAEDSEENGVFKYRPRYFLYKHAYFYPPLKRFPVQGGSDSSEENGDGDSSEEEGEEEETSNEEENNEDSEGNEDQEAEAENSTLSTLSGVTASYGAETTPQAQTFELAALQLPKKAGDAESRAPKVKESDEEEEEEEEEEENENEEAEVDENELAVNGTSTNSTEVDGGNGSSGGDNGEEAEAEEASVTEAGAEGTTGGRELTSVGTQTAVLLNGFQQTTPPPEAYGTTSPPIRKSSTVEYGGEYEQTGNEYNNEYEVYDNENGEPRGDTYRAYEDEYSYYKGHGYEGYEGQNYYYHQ

[2] = molecular target: T2, DMP1:FLAG (FLAG epitope-tagged mouse dentin matrix protein 1, affinity purified), O55188
T2 chain: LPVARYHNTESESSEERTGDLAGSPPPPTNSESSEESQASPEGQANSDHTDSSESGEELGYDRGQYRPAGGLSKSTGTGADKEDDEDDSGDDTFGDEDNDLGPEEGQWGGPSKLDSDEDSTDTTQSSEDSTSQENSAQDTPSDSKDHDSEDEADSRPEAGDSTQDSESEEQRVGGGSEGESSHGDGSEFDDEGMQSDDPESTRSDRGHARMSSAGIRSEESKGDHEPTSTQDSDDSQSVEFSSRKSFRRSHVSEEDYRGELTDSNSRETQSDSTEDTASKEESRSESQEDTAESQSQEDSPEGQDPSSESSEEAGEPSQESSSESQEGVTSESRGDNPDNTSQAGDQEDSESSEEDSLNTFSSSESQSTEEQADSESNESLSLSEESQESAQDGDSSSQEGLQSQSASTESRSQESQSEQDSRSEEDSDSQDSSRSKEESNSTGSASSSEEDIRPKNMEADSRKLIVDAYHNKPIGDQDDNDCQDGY

[3] = molecular target: T3, Fat2-3:FLAG (affinity-purified cadherin domains of Drosophila Fat), P33450
T3 chain: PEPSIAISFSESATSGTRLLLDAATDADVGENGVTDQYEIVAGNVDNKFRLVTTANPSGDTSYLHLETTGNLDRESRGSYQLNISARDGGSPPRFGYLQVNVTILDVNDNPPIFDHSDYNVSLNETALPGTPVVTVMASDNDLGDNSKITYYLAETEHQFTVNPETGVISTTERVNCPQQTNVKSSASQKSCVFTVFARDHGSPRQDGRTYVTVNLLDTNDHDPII

[4] = molecular target: Myelin Basic Protein (NEB)
[5] = molecular target: OPN:FLAG (FLAG epitope-tagged mouse osteopontin, affinity purified), P10923
[6] = molecular target: T4, Peptide1, OPN-ASARM peptide (human Osteopontin 115Asp to 132Leu with N-terminal Arg-Lys-Arg)
T4 chain: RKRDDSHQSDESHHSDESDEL

[7] = molecular target: T5, Peptide2, OPN-ASARM derivative with all five Ser residues replaced by Ala
T5 chain: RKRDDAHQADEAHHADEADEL

[8] = molecular target: T6, Peptide3, OPN-ASARM derivative with the three G-CK consensus Ser residues changed to Ala
T6 chain: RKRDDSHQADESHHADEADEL

[9] = molecular target: T7, Peptide4, OPN-ASARM derivative with the other two Ser residues changed to Ala
T7 chain: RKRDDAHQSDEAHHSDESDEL

[10] = molecular target: dephosphorylated alpha-Casein (Sigma)

OPN:FLAG (FLAG epitope-tagged mouse osteopontin, affinity purified), P10923, sequence (P10923 17-294): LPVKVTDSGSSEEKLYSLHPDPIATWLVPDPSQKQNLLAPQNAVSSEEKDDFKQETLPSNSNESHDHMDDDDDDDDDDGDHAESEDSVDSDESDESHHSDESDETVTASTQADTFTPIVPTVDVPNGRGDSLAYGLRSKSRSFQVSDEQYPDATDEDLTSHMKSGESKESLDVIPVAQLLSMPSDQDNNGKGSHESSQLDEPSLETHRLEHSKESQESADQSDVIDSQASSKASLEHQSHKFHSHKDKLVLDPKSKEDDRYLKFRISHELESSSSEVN

B1: FAM20C:V5 (V5-epitope tagged mouse FAM20C, affinity purified from conditioned medium of HEK293T cells) (protein)
chain: DFSSDPASNLTSHSLEKLPSAAEPVDHAPRGQEPRSPPPRDPAHRPLLRDPGPRPRVPPPGPSGDGSLLAKLFEHPLYQGAVPPLTEDDVLFNVNSDIRFNPKAAENPDWPHEGAEGAEFLPTGEAAVNLYPNWLKFHIGINRYELYSRHNPAIDALLRDLGSQKITSVAMKSGGTQLKLIMTFQNYGQALFKPMKQTREQETPPDFFYFSDYERHNAEIAAFHLDRILDFRRVPPVAGRMINMTKEIRDVTRDKKLWRTFFVSPANNICFYGECSYYCSTEHALCGRPDQIEGSLAAFLPDLSLAKRKTWRNPWRRSYHKRKKAEWEVDPDYCEEVKQTPPYDSGHRILDIMDMTVFDFLMGNMDRHHYETFEKFGNETFIIHLDNGRGFGKYSHDELSILAPLHQCCRIRRSTYLRLQLLAKEEHKLSLLMAESLQHDKVAPVLYQLHLEALDRRLRIVLQAVRDCVEKDGLSSVVEDDLATEHRASTER
in vitro kinase assay (32P transfer) [1]: Transfer of ^32P onto OPN, BSP, and DMP1 was observed in the presence of FAM20C:V5 | in vitro kinase assay (32P transfer) [2]: Transfer of ^32P onto OPN, BSP, and DMP1 was observed in the presence of FAM20C:V5 | in vitro kinase assay (32P transfer) [3]: neither Myelin basic protein ... nor cadherin domains of Fat that are substrates for Fj, were detectably phosphorylated by FAM20C | in vitro kinase assay (32P transfer) [4]: neither Myelin basic protein ... nor cadherin domains of Fat ... were detectably phosphorylated by FAM20C | in vitro kinase assay (32P transfer) [5]: Transfer of ^32P onto OPN, BSP, and DMP1 was observed in the presence of FAM20C:V5 | in vitro kinase assay with peptide substrate [6]: In vitro kinase reactions confirmed that OPN-ASARM is a FAM20C substrate | in vitro kinase assay with peptide substrate [7]: a derivative with all five Ser residues replaced by Ala (OPN-ASARM^5S-A) was not phosphorylated | in vitro kinase assay with peptide substrate [8]: A peptide in which only the three G-CK concensus sites were changed to Ala (OPN-ASARM^3S-A) was phosphorylated much less effectively | in vitro kinase assay with peptide substrate [9]: a derivative in which the other two Ser residues were changed to Ala (OPN-ASARM^2S-A) was still efficiently phosphorylated by FAM20C | Michaelis constant (Km), in vitro kinase assay [10]: a Michaelis constant (Km) of FAM20C for Casein of 1.5 µM | in vitro kinase assay (32P transfer) [10]: Dephosphorylated Casein was phosphorylated by purified FAM20C in vitro
